{"source": "paper PMC12431651", "about": "(2025)", "binders": {"B1": {"name": "NS1 (protein)", "chain": "MGSNSLSMIKVRLQNLFDNDEVALLKITCYTDKLIHLTNALAKAVIHTIKLNGIVFVHVITSSDICPNNNIVVKSNFTTMPVLQNGGYIWEMMELTHCSQPNGLLDDNCEIKFSKKLSDSTMTNYMNQLSELLGFDLNP"}}, "molecular_target": "T1, MED25 ACID (Homo sapiens, UniProt Q71SY5)", "T1 chain": "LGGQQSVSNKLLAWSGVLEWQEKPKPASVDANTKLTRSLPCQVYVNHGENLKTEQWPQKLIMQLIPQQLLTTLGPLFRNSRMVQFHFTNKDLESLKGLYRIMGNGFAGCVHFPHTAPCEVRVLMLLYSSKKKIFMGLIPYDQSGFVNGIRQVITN", "test": "BLI", "data": [{"binder": "B1", "values": [{"measurement": "Kd", "value": 16, "unit": "nM"}]}]}
